Measurements from publication doi:10.1101/2022.03.30.486377 (bioRxiv, 2022).

Columns and labels:
Experiment in all cases: ELISA
[1] = target: SARS-CoV-2 S2 in postfusion conformation (SARS-CoV-2 (D614G ectodomain; D614G …, UniProt P0DTC2, strain)
[2] = target: SARS-CoV-2 S2 PentaPro in prefusion conformation (SARS-CoV-2, Wuhan-Hu-1 sequence, UniProt P0DTC2, stabilised)
[3] = target: SARS-CoV-2 S PentaPro (F817), prefusion S trimer (SARS-CoV-2, Wuhan-Hu-1 sequence, UniProt P0DTC2, stabilised)

Measured: binding result

B1: VP12E7 mAb (antibody, V domains shown)
VH: QVQLVQSGGGVVQPGESLRLSCSGSGFTFNNYIMHWVRQAPGQGLDYVSGIGSDGRNTNYGDSVKGRFTISRDNSKDTLYLQMTSLRAEDTAFYYCVKGLDVLRFLDLSTPSGERLDAFDIWGQGTMVTVSS
VL: DIVMTQSPSFLSASVGDRVTITCRASQGISNYLAWYQQKPGKAPHLLIYAASTLQSGVPSRFSGSGSGTEFTLTISSLQPEDFATYYCQQLNSYPLFTFGPGTKVDIE
binds: [1] | [2] | [3]

B2: C77G12 mAb (antibody, V domains shown)
VH: EVQLVESGGGVVQPGRSLRISCAVSGFTFGSYAMHWVRQAPGKGLEWVGVMSSDGHNEYYADSVKGRFTISRDNSRNKLYLEMNNLRVDDTAVFYCARGSDYVDDSPPLHYWGQGTLVTVSS
VL: DIQLTQSPSSLSASIGDRVTITCRASQDIANKLAWFQQAPGKAPKSLIYAASRLQSGVPSQFSGSGSGTDFTLTIESLQAGDFATYFCQQYDSFPFTFGPGTKVDVK
binds: [1] | [2] | [3]

B3: C13B8 mAb (antibody, V domains shown)
VH: QVQLQESGPGLVQPSQTLTLTCTVSGDSISNEDYHWTWIRQHPGKGLEWMGYLQYSGNTNYNPSLKSRMTISVDTSKNQFSLRLNSVTAADTAVYFCATSIVLTGMSNKIQPFDYWGQGTLVTVSS
VL: SYELTQPPSVSVSPGQMARITCSGEALPKKYAYWYQQKGGQFPVLVIYKDTERPSGIPERFSGSSSGTIVTLTISGVQPEDEADYYCLSADTSGTWVFGGGTKLTVL
binds: [1] | [2] | [3]

B4: VN01H1 mAb (antibody, V domains shown)
VH: EVQLVESGGGLVLPGGSLRLSCSASGFTFSDFSMHWVRQSPGKGLEYVSAITSSGSSTYYPDSVKGRFTISRDNSKNTLYLQMGSLRVEDTAVYWCVKNSDVFRFPHLYFDVWGRGTLVTVSS
VL: not shown
binds: [1] | [2] | [3]

B5: C13C9 mAb (antibody, V domains shown)
VH: EVQLVQSGPEVKKPGTSARVSCKASGFTSKNTALQWVRQARGQPLEWMGWIDISNYITNYAQKFRGRLTITWDLSASMAYMELSSLRSEDTAVYYCAAVGKDDDVLTGGNKYFDHWGQGTLVTVSS
VL: SYELTQPPSVSVSPGQTARITCSGDALPKKYAYWYQQKSGQAPVLVIHEDDKRPSGIPGRFSASSSGTTATLTISGAQVEDEADYYCYSTDTNDNHAFGSGTKLTVL
binds: [1] | [2] | [3]
